Measurements reported in the nanobody polyreactivity screen of Harvey et al. (2022).

Experiment: yeast display, Sf9 membrane polyspecificity reagent, FACS + sequencing; frameworks hold sequencing errors
Summary of the method: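 After 36–48 hours of galactose induction, yeast (Saccharomyces cerevisiae BJ5465) displaying a synthetic nanobody library were stained at 4 °C for 1 hour with 10% biotinylated, detergent-solubilized Sf9 membrane reagent. Streptavidin microbeads enriched the stained cells before FACS sorting into low and high (top ~1%) gates on anti-HA and streptavidin fluorescence. Each clone's polyreactivity label reflects its gate of origin.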

Row | Sequence | polyreactivity (PSR sort gate)
1 | QVQLVESGGGLVQAGGSLRLSCAASAYTFDGYAMGWYRQAPGKERELVAAINSGGGTYYADSVKGRFTISRDNAKNSVYLQMNSLKPEDTPVYYCNASVKPSNVWSRGYDYWGQGTQVTVSS | low polyreactivity
2 | QVQLVESGGGLVQAGGSLRLSCAASGRTFYYAMGWYRQAPGKERELVATITSGGSTNYADSVKGRFTISRDNAKNTVYVQMNSLKPEDTAVYYCNRDIPPGNYYKALYYYWGQGTQVTVSS | low polyreactivity
3 | QVQLVESGGGLVQAGGRLRLSCAASGSTYYNAMGWYRQAPGKERELVAAIRFRSGSTYYADSVKGRFTISRDNAKNTVYLQMNSLKPEDTAVYYCAAYCRRSYVDSYDIRFDYWGQGTQVTVSS | high polyreactivity
4 | QVQLVESGGGLVQAGGSLRLSCAASGFIFAAYAMGWYRQAPGKERELVAAINRSGSSTYYADSVKGRFTISRDNAKNTVYLQMNSLKPEDTAVYYCAARVVHQSRYSYEYWGQGTQVTVSS | high polyreactivity
5 | QVQLVESGGGLVQAGGSLRLSCAASGNTFPVYAMGWYRQASGKERELVATITSGGSTNYADSVKGRFTISRDNAKNTVYLQMNSLKPEDTAVYYCARRAVYSKRRYDYWGQVTQVTVSS | low polyreactivity
6 | QVQLVESGGGLVQAGGSLRLSGADSGLTFRRNAMGWYRQAPGNERELVAAIRTGGSTYYADSVKGRFTISRDNAKNTVYLQMNSLKPEDTAVYYCAARSLIGSRLVPMNFWGQGTQVTVSS | high polyreactivity
7 | QVQLVESGGGLVQAGGSLRLSCAASGSIFPGYAMGWYRQAPGKERELVATITWSGGSTYYADSVKGRFTISRDNAKNTVYLQMNSLKPVDTAVYYCNADSNWYYQWNYYGLYDYWGQGTQVTVSS | low polyreactivity
8 | QVQLVESGGGLVQAGGSLRLSCAASGTTFARNAMGWYRQAPGKERELVAVISYSGGSSYADSVKGRFTISRDNAKNTVYFHMKSLKPEVTAVYYCAARAWYPSRYDFWGQGTQVIVSS | high polyreactivity
9 | QVQLVESGGGLVQAGGSLRLSCAASGSIFHKNAMGWYIQAPGKERELVARITSSSGSTYYADSVKGRFTISRDNAKNTVYLQMNSLKPEDTAVYYCNASPTTTPNFWRYDYWGQGTQVTVSS | high polyreactivity
10 | QVHLVESGGGLVQAGGSLRLSCAASGSTFFYYAMGWYRQAPGKERELVAAISNSGGNTFYADSVKGRFTISRDNAKNTVYLQMNSLKPEDTAVYYCAADEIGHFQWRDGDYWGQGTQVTVSS | low polyreactivity
11 | QVQLVESGGGLVQAGGSLRLSCAASGSIFWSYAMGWYRQAPGKERELVAAITTDGGTNYADSVKGRFTISRDNAKNTVYLQMNSLKPEDTAVYYCAARYGTSYIVRWTYYAFDYWGQGTQVTVSS | low polyreactivity
12 | QVQLVESGGGLVQAGGSLRLSCAASGSIFLRYAMGWYRQAPGKERELVAAITTGGGSTYYADSVKGRFTISRDNAKNTDYLQMNSLKPVDTAVYYCAKRAQYHWRGRDDYSYYYWGQGTQVTVSS | low polyreactivity
13 | QVQLVESGGGLVQAGGSLRLSCAASGRTFYNYAMGWYRQAPGKERELVAAITRGGSTYYADSVKGRFTISRDNAKNTVYLQMNSLKPEDTAVYYCNAVFPYEHEEYDYWGQGTQVTVSS | high polyreactivity
14 | QLQLVDSGGGVVQAGGSLRLSCAASGSTYAQYVMGWYRPATGKEKELVAAISLSGGSTYYAASVKGRFTISRDNAKNTVYLQMNSLKPVDTAVYYCSARGYGPGLYSSRQNEYYYWGQGTQVTVSS | high polyreactivity
15 | QVQLQEGGGGLVQAGGSLRLSCAASGYISYGDVMGWYRQAPGEERELVASIGLDATTNYADSVKGRFTISRDNAKITVYLQMNSLKPEATAVYYCAADVGSGVMCGYWGQGTQMTVSS | high polyreactivity
16 | QVQLVESGGGLVQAGGSLRLSCAASGRIFGHYARGWYRQAPGKERELVAAITSGGRTYYADSVKGRFTISRDNAKNTVYLQMNSLKPEDTAVYYFNVRVFVGLQPFGYWGQGTQVTVSS | high polyreactivity
17 | QVQLVESGGGLVQAGGSLRLTCAASGRIFRVNTMGWYRQAPGKERELVATINGRGGSTYYADSVKGRFTISRDNAKNTVYLQMNSLKPVDTSVYYCAARARTTRSATYDYWGQGTQGTVSS | high polyreactivity
18 | QVQLVESGGGLVQAGGSLRLSCAASGRICDSYTMGWYRQAPGKERELVAAISRGGGSTYYADSVKGRFTISRDNAQNTVYLQMNSLKPEDTAVYYCAASSYLNSRFKFDYWGQGTQVTVSS | low polyreactivity
19 | QVQLVESGGGLVQAGGSLRLSCAASGLTFVAYAMGWYRQAPGKERELVASISSRTGGTSYADSVKGRFTISRDNAKNTVYLQMNSLKPEDTAVYYCNAAARRYTSVFYTSGYTFDYWGQGTQVTVSS | low polyreactivity
20 | QVQLVESGGGLVQAGGSLRLSCAASGRTFSTYAMGWYRQAPGKERELVAAKSSGGGRTYYADSVKGRFTISRDNAKNTVYLQMNSLKPEDTAVYYCAADRYFRSRRSYEYWGQGTQVTVSS | low polyreactivity

Row | Sequence | polyreactivity (PSR sort gate)
21 | QVQLVESGGGLVQAGGSLRLSCADSGRIYYSNAMGWSRQAPGKEREWVAAISRSGVRTYYADSVKGRYSISRDNAKNTVYLQKNSLKPEDTADYYCAAVIYGTTPQDEYDYWGQGTQVTVSS | low polyreactivity
22 | QVQLDESGRGLVQAGGSLRLSCAASGSTFGRYAMGRYREAPGKERELVAAISRGGGSTYYADSVKGRFTISRDNAKNTVYLQMNSLKPEDTAVYYCATDQNYPYSGGGDYWGQGTQVTVSS | low polyreactivity
23 | QVQLVESGGGLVQAGGSLRLSCAASGRIFKSYAMGWYRQAPGKERELVATISISGGSTYYADSVKGRFTISRDNAKNTVYLQMNSLKPEDTAVYYCAADRYGLGDYDYWGQGTQVTVSS | low polyreactivity
24 | QVQLVESGGGLVQAGGSLRLICAASGITFYDYAMGWYRQAPGKERELVAVITRRGGSTYYADSVKGRFTISRDNAKNTVYLQMNSLKPEDTAVYYCAADWRGWSFVRGDDYWGQGTQVTVSS | high polyreactivity
25 | QVQLVESGGGLVQAGGSLRVSCAASGSIFHENAMGWYRPAPGKEWELVAAIDQTGSTYADSVKGRFTISRDNAKNTVYLQMNSLKPEDTAVYYCAKGDVSLDYPSLEFDYWGQGTQVTVSS | low polyreactivity
26 | QVQLVESGGGLVQAGGSLRLSCAASGRIFTIYAMGWYRQAPGKERELVAAISGGGGITNYADSVKGRFTISRDNAKNTVYLQMNSLKPEDTAVYYCAATPRAPRTISLYNYWGQGTQVTVSS | high polyreactivity
27 | QVQLVESGGGLVQAGGSLRLSCAASGRIFFAYAMGWYRQAPGKEREFVAAISDNDGSTYYADSVKGRFTISRDNAKNTVYLQMNSLKPEDTAVYYCNADLGYVYDYWGQGTQVTVSS | low polyreactivity
28 | QVQHVESGGGLVQAVGSLRLSCAASGRTFNNYAMGWYRQAPGKERELVAAISWRSDSTYYADSVMGRFTISRDNAKNTVYLQMNSLKPEDTAVYYCAASQYPLFWYDYWGQGTQVTVSS | low polyreactivity
29 | QVQLVESGGGLVQAGGSLRLSCAASGRIYSWYAMGWYRQAPGKERELVAVISRGVSTYYADSVKGRFTISRDNAKNTVYLQMNSLKPEDTAVYYCAAYSGGRYYYWGQGTQVTVSS | low polyreactivity
30 | QVKLVESGGGLVQAGGSLRLSCADSGRTFYYNTMGWYRQAPGKERELVADITISGGSTYYADSVKGRFTISRDNAKNTVYLQMKSLKPEDTAVYYCAAGWFSLSTAYYHKRVGYNYWGQGTQVTVSS | high polyreactivity
31 | QVQLVESGGGLVQAGGSLRLSCAASGRIFRYYAMGWYRQAPGKERELVAAINWGGGSTYYADSVKGRFTISRDNAKNTVYLQMNSLKPEDTAVYYCNRDRNSFPHYFSHYGYWGQGTQVTVSS | high polyreactivity
32 | QVQLVESGGGLVQAGGSLRLSCAASGFIFGTYVMGWYRQAPGKERELVAAISESGGRTYYADSVKGRFTISRDNAKNTVYLQMNSLKPEDTAVYYCNAPHHRYDWGQGTQVTVSS | high polyreactivity
33 | QGQLVESGGGLVQAGGSLRLRCAASGRTFYTYAMGWYRQAPGKERELVATITSGGSTYADSVKGRFTISRDNAKNTVYLQMNSLKPEDTAVYYCARGYYKPSVGKSKRVGGNYWGQGTQVTVSS | high polyreactivity
34 | QVQLVESGGGLVQAGGSLRLSCAASGSIFVPNAMGWYRQAPGKEREFVAAITRSGGRTYYADSVKGRFTISRDNAKNTVYLQMNSLKPEDTAVYYCAAPYGTYAYDYWGQGTQVTVSS | high polyreactivity
35 | QVQLVESGGGLVQSGGSLRLSCAASGITLYWYAMGWYRQAPGKERELVAAITFNGGSTYADSVKGRFTISRDNAKNTVYLQMNSLKPEDTAVYYFASGDGPSLFDYWGQGTQVTVSS | low polyreactivity
36 | QVQLVESGRGLVQAGGSLRLSCAASGITFGDNVMGWYRQAPGKERELVAAISRIGDDTYYADSVKGRFTISRDNAKNTVYLQMNSLKPEDTAVYYCATDYTQRDYYNYGYWGQGTQVTVSS | low polyreactivity
37 | QVHLQESGAGLVQVGGSQRLSCAASGNIFYNYAMGWSRHAQGKEREFDATINHGTSINYADSVKGRFTISRDNAKNNVYLQMNCLKPEDTAVYYCAADLSWTDNLFYWGQGTQVSVSS | low polyreactivity
38 | QVQLVESGGGLVQAGGSLRLSCAASGNTFGKYAMGWYRHAPGKERELVAAISKSSGSTYYADSVKGRFTLSRDNAKNTVYLQMNSLKPEDTAVYYCAACWYSYRYSRLGFGSWGQGTQVTVSS | high polyreactivity
39 | QVQLVESGGGLVQAGGSLRLSCAASGSIFEQYAMGGSRPAPGKERELVAAISKRGTSTYYADSVKGRFTISRDTPKNTVYLNMNSLKPEDTAVYYCAATNRWYYRAAADVYAFGYWGQGTQVTVSS | high polyreactivity
40 | QVQLVESGGGLVQAGGSLRLSCAASGRIFYHYAMGWYRQAPGKERELVAGINYRGGSTTYADSVKGRFTISRDNAKNTVYLQMNSLKPEDTAVYYCATLYPWKFPIRETGFDSWGQGTQVTVSS | low polyreactivity
